± gives the standard deviation of the averaged measurements.
The sequences below were run on ATP (assay: switch fluorescence ratio, 500 uM ATP over buffer (Cy3 cluster intensity, sum of 5 cycles each) (fold (ratio)); higher = stronger signal-on switching upon ATP binding; sequences stand for … in TCGTCGGCAGCGTCAGATGTGTATAAGAGACAGTTTTTTTTTTTTTTTTTTTTTTTTT…TC). Settings: aptamer strand: ATP DNA aptamer (quencher-CACCTGGGGGAGTATTGCGGAGGAAGG + anchor), 100 nM annealed; ATP concentration: 500 uM.
Procedure, shortened: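 The fluorescence ratio divides summed target-cycle Cy3 intensity by summed buffer-cycle Cy3 intensity for each cluster and is averaged per switch-domain sequence. Cy3-labelled switching-strand clusters on a modified Illumina MiSeq flow-cell were annealed to 100 nM quencher-labelled ATP aptamer, then imaged in selection buffer and again after 15 min with 500 uM ATP at 22 °C. Five such cycles were run, with NaOH stripping and re-annealing between them, and clusters outside 100-1000 RFU were excluded.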
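Also: ATP exposure 15 min at 22 °C before imaging.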

| Sequence | switch fluorescence ratio |
| --- | --- |
| TGAATTTAGT | 0.9729 ± 0.0089 |
| ATATTTAGAG | 0.992 ± 0.027 |
| GGGTCCAGGG | 1.228 ± 0.0082 |
| GCGTAAAGGT | 1.014 ± 0.0064 |
| ACAAGTTTAA | 0.997 ± 0.025 |
| GGATGCCAGT | 0.998 ± 0.013 |
| TTGCTTGGTG | 1.03 ± 0.017 |
| GTTTTGGGTA | 1.04 ± 0.041 |
| TAGGTGGGGG | 1.01 ± 0.039 |
| ATTTTGGCGA | 1.02 ± 0.029 |
| GGGGAAGGAG | 0.977 ± 0.029 |
| CCTGGATTCA | 0.9888 ± 0.002 |
| CTCATAGTAG | 0.988 ± 0.016 |
| GTTCCCAGTT | 0.997 ± 0.017 |
| AAAGTCTTT | 1.02 ± 0.047 |
| CCATGTTAAG | 0.985 ± 0.02 |
| TAGGTTGTCT | 1.03 ± 0.036 |
| TTAAAAATAT | 1.02 ± 0.053 |
| ATCGTAGATT | 0.993 ± 0.016 |
| AGTATCTCTT | 1.0161 ± 4.4e-05 |
| TGGGTATGTT | 1.02 ± 0.014 |
| CAGCATGGGT | 1.025 ± 0.0034 |
| AGGATAAAGG | 1.03 ± 0.036 |

| Sequence | switch fluorescence ratio |
| --- | --- |
| TTTTCCCTGG | 1.46 ± 0.62 |
| CTGAATTTCA | 0.9833 ± 0.0017 |
| GTTTGGGCTT | 1.05 ± 0.063 |
| GAAATCGTTC | 1.02 ± 0.019 |
| AGGTTGCATG | 1.02 ± 0.079 |
| GAGCAAAAAG | 1.05 ± 0.042 |
| GATTTTTTGT | 0.99 ± 0.028 |
| TATTAAATTG | 0.9975 ± 0.0028 |
| CCTAGCGGTG | 1.12 ± 0.03 |
| TGGTGCCCAC | 1.01 ± 0.027 |
| CGTGTGGGGG | 1.02 ± 0.031 |
| CACTAGACGG | 1.45 ± 0.064 |
| TTTTTACTGG | 1 ± 0.03 |
| CAAGGATGTG | 0.965 ± 0.041 |
| GCGTTCGGGC | 1 ± 0.029 |
| GTTAGTCGGT | 0.983 ± 0.032 |
| TTGGGGTAGG | 1.01 ± 0.032 |
| AAGGGGTTTC | 0.9746 ± 0.0067 |
| GCTAGTGTGG | 1.03 ± 0.015 |
| AGGGCACATA | 1.0764 ± 9.5e-05 |
| TATTAGGGTT | 1.03 ± 0.045 |
| GTAATAAGCG | 1.007 ± 0.00016 |
| GAGTACCACT | 1.01 ± 0.078 |

| Sequence | switch fluorescence ratio |
| --- | --- |
| GTTGATGGAG | 0.992 ± 0.0091 |
| CCAAGGCAGG | 1.35 ± 0.069 |
| TAATCGGCTC | 1 ± 0.03 |
| AGAGGTTAGG | 0.9874 ± 0.0033 |
| TGGGATTTTT | 0.985 ± 0.031 |
| AGAAGTTGGT | 1 ± 0.023 |
| TTTTGACGCG | 1.06 ± 0.052 |
| CGGATCATCA | 1 ± 0.021 |
| CTGTGAGGCT | 1 ± 0.042 |
| TCAAGCCATC | 1.063 ± 0.0037 |
| CAATAAATAG | 1.005 ± 0.006 |
| GGGTTGATAG | 1.01 ± 0.021 |
| AGTATATCTG | 0.974 ± 0.02 |
| GCTTCCCAGC | 1.19 ± 0.032 |
| CTGTGACAAT | 1.04 ± 0.029 |
| GCCGGAAGAA | 1.05 ± 0.037 |
| GACAGTAGTC | 1.001 ± 0.0049 |
| TTACAGGGGA | 1.01 ± 0.044 |
| CCCGTAGGCT | 0.973 ± 0.014 |
| TATGGAGAGC | 1.02 ± 0.038 |
| TGGTTGGGTA | 0.997 ± 0.018 |
| AGGCGGGACA | 1.025 ± 0.0082 |
| GACGGGCTGT | 0.985 ± 0.029 |

| Sequence | switch fluorescence ratio |
| --- | --- |
| GGGGTTACGC | 1.03 ± 0.059 |
| AGTGGTGGG | 1.02 ± 0.068 |
| GCGAATGCTG | 1.006 ± 0.0089 |
| GGATTAAATC | 1.001 ± 0.0086 |
| GCAAATGTAT | 1.004 ± 0.0037 |
| GTTAGGTTTT | 1 ± 0.017 |
| GTGTCGGATC | 1.06 ± 0.023 |
| GGTTTGGGGG | 0.997 ± 0.023 |
| TGGAGCGGTT | 1.03 ± 0.032 |
| TGTGTTTCTG | 1.02 ± 0.019 |
| ATCGTTGGCT | 1.04 ± 0.07 |
| GCGGGAGGGA | 1.03 ± 0.015 |
| CTGCGTCTTT | 1.03 ± 0.015 |
| TTAGGGCAGG | 1.06 ± 0.058 |
| ACTGGGTAGA | 1.0278 ± 0.00073 |
| ATGTATTTTC | 0.986 ± 0.041 |
| ACTTTGGGCG | 0.932 ± 0.059 |
| TTTGACGGAA | 1.27 ± 0.28 |
| AATTTTAACA | 1 ± 0.016 |
| GGGAGAGGGT | 1.02 ± 0.016 |
| AAGGGCAACG | 0.974 ± 0.063 |
| TAGTTGGGTT | 0.986 ± 0.041 |
| TAGGAGTTAG | 1 ± 0.047 |

| Sequence | switch fluorescence ratio |
| --- | --- |
| TTCAGGGGCG | 1.07 ± 0.13 |
| TTTTTTCGGA | 1.01 ± 0.073 |
| CAGTCTGGGG | 0.964 ± 0.012 |
| GCTTGAAGGG | 1.01 ± 0.027 |
| TTGGGTTTTT | 1.04 ± 0.1 |
| TGAGATTTGT | 1.06 ± 0.12 |
| TTGGGCCCTG | 1.06 ± 0.014 |
| TGAAAGATTA | 1.01 ± 0.029 |
| TCGAAGTTTT | 0.9996 ± 0.0089 |
| AGTGCACGTG | 1 ± 0.061 |
| TATGGCGGAG | 0.9975 ± 0.0061 |
| TAATATTGTT | 1.007 ± 0.0095 |
| TGGTTGCCTG | 0.993 ± 0.056 |
| CCAGAGGAAC | 0.948 ± 0.019 |
| CATGTTTTTG | 1 ± 0.025 |
| GGGTGTTGCT | 1 ± 0.017 |
| AATCATGGCG | 0.991 ± 0.07 |
| TTAGTGGTAC | 1.15 ± 0.044 |
| CGATTGATGT | 1.02 ± 0.016 |
| TTCTTCTCAA | 1.15 ± 0.065 |
| TGGCCTAGTG | 1.002 ± 0.0071 |
| CCCATTTTTT | 1 ± 0.049 |
| CATTCAGTCG | 1 ± 0.026 |

| Sequence | switch fluorescence ratio |
| --- | --- |
| GGGGAAGTAT | 0.985 ± 0.014 |
| CGGCGTACTA | 1.06 ± 0.014 |
| TTCCATATGT | 0.975 ± 0.021 |
| GGGTTGGGGA | 1.01 ± 0.025 |
| TTAACGGGCT | 1.01 ± 0.048 |
| TTTGGTCTCA | 1 ± 0.02 |
| AATCAGAAAG | 1.15 ± 0.24 |
| GGCCTCTTTT | 0.966 ± 0.039 |
| ATCAACGTTA | 1.07 ± 0.031 |
| CAGGTAAAGG | 1.01 ± 0.022 |
| GTAATGGAAT | 0.9912 ± 0.0078 |
| GATGTTATTC | 0.978 ± 0.011 |
| ACGAGTGTTG | 1.03 ± 0.037 |
| TAACCTTAGC | 1.29 ± 0.041 |
| CTGAACTCGA | 1.09 ± 0.046 |
| TTAGTCTGTT | 0.99 ± 0.022 |
| AATTTTAGTC | 0.994 ± 0.04 |
| CACCTTACGT | 1.45 ± 0.079 |
| TGTTTATGAC | 0.9847 ± 0.0081 |
| TTTATTAGCT | 1.02 ± 0.043 |
| ACTGCTGAAT | 0.99 ± 0.045 |
| TCGGGAGAGC | 1.04 ± 0.038 |
| CATTTGCGCA | 1.022 ± 0.0084 |

| Sequence | switch fluorescence ratio |
| --- | --- |
| GGACACGCAG | 1.02 ± 0.047 |
| GAAGTTCCCA | 0.979 ± 0.011 |
| AGGCCTCGGG | 1.022 ± 0.0054 |
| CGCATGATGT | 1.03 ± 0.018 |
| GTTGGTATTC | 0.9965 ± 0.0086 |
| ACGAGTAGCT | 1.01 ± 0.014 |
| GGTCTAGGCA | 0.987 ± 0.02 |
| CACGAGTTAG | 1.0257 ± 0.00055 |
| GCTAACCATT | 1.1 ± 0.15 |
| TTTTCGGACG | 1.03 ± 0.05 |
| TTGGCGACAT | 1.02 ± 0.021 |
| TCAGTGGGGG | 0.97 ± 0.019 |
| TGCCGTTTGG | 1 ± 0.03 |
| GAAGGAGCAA | 2.54 ± 1.2 |
| GCCTGTTTGT | 0.983 ± 0.02 |
| GTGGTAGGGG | 0.995 ± 0.025 |
| TTTTACTATG | 0.9893 ± 0.0041 |
| TAGGAGTTGC | 0.971 ± 0.052 |
| TCTTTATATG | 0.9989 ± 0.0033 |

Reference: the supplement of paper PMC10126150
